Laboratory results reported in patent US20200087662, “INHIBITION OF POLY(A) BINDING PROTEIN AND THE TREATMENT OF PAIN” (Board of Regents, The University of Texas System, published 2020).

Biological target: PABPC1 (residues 1-383) (Homo sapiens, UniProt P11940 P11940:1-383)
Test: FP; 50 mM HEPES, 5 mM EDTA, 250 mM KCl, 10 mM DTT, 0.5 mg/mL BSA, 0.05% Tween-20, yeast total RNA competitor
Conditions: label: Cy3 or 3' biotin
Method: Equilibrium dissociation constants were determined by florescence anisotropy measurements of either unmodified adenosine 12 nucleotide RNA or the Poly(A) SPOT-ON to recombinant human PABPC1 (residues 1-383). Binding reactions were conducted in 50 μL of buffer containing 50 mM HEPES, 5 mM EDTA, 250 mM KCl, 10 mM DTT, 0.5 mg/mL BSA, 0.05% Tween-20, 0.1 mg/mL yeast competitor total RNA (Ambion), and 0.5 nM Cy3-labeled RNA. Measurements were recorded on a Tecan Spark multimode plate reader in triplicate. Data were fit using Kalidagraph as described⁶³

PABPC1 (residues 1-383), sequence (P11940 1-383, one chain of several): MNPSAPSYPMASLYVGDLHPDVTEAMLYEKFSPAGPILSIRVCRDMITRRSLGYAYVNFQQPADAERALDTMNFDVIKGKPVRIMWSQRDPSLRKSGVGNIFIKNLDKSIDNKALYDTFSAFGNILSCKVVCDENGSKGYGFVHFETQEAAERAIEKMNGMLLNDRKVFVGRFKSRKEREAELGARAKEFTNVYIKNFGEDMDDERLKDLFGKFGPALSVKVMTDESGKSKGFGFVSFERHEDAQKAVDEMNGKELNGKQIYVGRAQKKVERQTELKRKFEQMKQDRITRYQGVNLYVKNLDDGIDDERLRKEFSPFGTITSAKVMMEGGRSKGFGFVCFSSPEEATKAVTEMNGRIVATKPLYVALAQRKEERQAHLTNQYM

B1: Poly(A) SPOT-ON (ssRNA)
RNA: AAAAAAAAAAAA
modifications: 2'-OMe at all riboses; PS at the 5'-most and 3'-most linkages
Which Kd does the source give for B1 here?
Its Kd is 301 nM.
